From patent publication US20220204580A1 (AstraZeneca / MedImmune, published 2022) come the findings set out here.

Test [1] deals with T1, human amylin receptor (calcitonin receptor co-expressed with receptor activity modifying protein, RAMP3) (human, UniProt P30988 25-474; O60896 24-148).
T1 sequence (looked up) 1: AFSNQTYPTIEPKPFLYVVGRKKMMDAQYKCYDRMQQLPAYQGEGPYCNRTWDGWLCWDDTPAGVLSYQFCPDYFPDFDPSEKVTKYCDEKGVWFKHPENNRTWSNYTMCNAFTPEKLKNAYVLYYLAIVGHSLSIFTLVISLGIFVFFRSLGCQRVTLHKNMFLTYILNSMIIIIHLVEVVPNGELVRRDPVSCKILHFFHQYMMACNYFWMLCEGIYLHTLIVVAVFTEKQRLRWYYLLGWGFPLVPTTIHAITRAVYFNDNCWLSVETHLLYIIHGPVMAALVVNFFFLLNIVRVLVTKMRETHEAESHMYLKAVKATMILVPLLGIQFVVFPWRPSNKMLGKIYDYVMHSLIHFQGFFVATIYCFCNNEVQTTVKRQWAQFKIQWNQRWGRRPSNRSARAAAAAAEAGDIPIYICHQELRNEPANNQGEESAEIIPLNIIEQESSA
T1 sequence (looked up) 2: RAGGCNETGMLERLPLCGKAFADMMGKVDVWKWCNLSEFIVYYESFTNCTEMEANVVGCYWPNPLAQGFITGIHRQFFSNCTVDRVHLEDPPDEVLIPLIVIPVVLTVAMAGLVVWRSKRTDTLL
The test is described as follows: cell-based or functional assay.

The target of test [2] is T2, human calcitonin receptor (human, UniProt P30988 25-474).
T2 sequence (looked up): T1 sequence (looked up) 1
The test is described as follows: cell-based or functional assay.

Numbered stars: 1 amine (or outer) side, 2 acyl side, 3 side chain; on linkers, the order of the positions; unused ones are H or OH. Bridge positions count the residues as written; N and C are the ends. Square brackets hold non-standard residues; d marks the D form. Side chains are listed from the residue outwards. Ends that are not written are not given here. * marks the point of attachment. C18 diacid = O=C(O)CCCCCCCCCCCCCCCCC(=O)*; γGlu = O=C(O)[C@H](CCC(=O)[*:2])N[*:1]; Aib = CC(C)(N)C(=O)O

B1: Peptide 138 (SEQ ID NO: 138) (peptide)
peptide: K([γGlu-C18 diacid])KCNTATCATQRLANFL[Aib]HSSPNFGPILPPTEVGSNTY-NH2
modifications: disulfide 3-8; N-terminus assumed
SMILES: CC[C@H](C)[C@H](NC(=O)[C@@H]1CCCN1C(=O)CNC(=O)[C@H](Cc1ccccc1)NC(=O)[C@H](CC(N)=O)NC(=O)[C@@H]1CCCN1C(=O)[C@H](CO)NC(=O)[C@H](CO)NC(=O)[C@H](Cc1c[nH]cn1)NC(=O)C(C)(C)NC(=O)[C@H](CC(C)C)NC(=O)[C@H](Cc1ccccc1)NC(=O)[C@H](CC(N)=O)NC(=O)[C@H](C)NC(=O)[C@H](CC(C)C)NC(=O)[C@H](CCCNC(=N)N)NC(=O)[C@H](CCC(N)=O)NC(=O)[C@@H](NC(=O)[C@H](C)NC(=O)[C@@H]1CSSC[C@H](NC(=O)[C@H](CCCCN)NC(=O)[C@@H](N)CCCCNC(=O)CC[C@H](NC(=O)CCCCCCCCCCCCCCCCC(=O)O)C(=O)O)C(=O)N[C@@H](CC(N)=O)C(=O)N[C@@H]([C@@H](C)O)C(=O)N[C@@H](C)C(=O)N[C@@H]([C@@H](C)O)C(=O)N1)[C@@H](C)O)C(=O)N[C@@H](CC(C)C)C(=O)N1CCC[C@H]1C(=O)N1CCC[C@H]1C(=O)N[C@H](C(=O)N[C@@H](CCC(=O)O)C(=O)N[C@H](C(=O)NCC(=O)N[C@@H](CO)C(=O)N[C@@H](CC(N)=O)C(=O)N[C@H](C(=O)N[C@@H](Cc1ccc(O)cc1)C(N)=O)[C@@H](C)O)C(C)C)[C@@H](C)O
On to B1, for which, in test [1], the “EC50 (cAMP production)” value was 612 pM and the “Ratio (EC50 hCTR / EC50 hAMYR3)” value worked out at 4.1. In addition, the “EC50 (cAMP production)” value in test [2] was found to be 2510 pM.

B2: Peptide 144 (SEQ ID NO: 144) (peptide)
peptide: K([γGlu-C18 diacid])CNTATCATQRLAHFL[Aib]HSSNNFGPILPPTNVGSNTY-NH2
modifications: disulfide 2-7; N-terminus assumed
SMILES: CC[C@H](C)[C@H](NC(=O)[C@@H]1CCCN1C(=O)CNC(=O)[C@H](Cc1ccccc1)NC(=O)[C@H](CC(N)=O)NC(=O)[C@H](CC(N)=O)NC(=O)[C@H](CO)NC(=O)[C@H](CO)NC(=O)[C@H](Cc1c[nH]cn1)NC(=O)C(C)(C)NC(=O)[C@H](CC(C)C)NC(=O)[C@H](Cc1ccccc1)NC(=O)[C@H](Cc1c[nH]cn1)NC(=O)[C@H](C)NC(=O)[C@H](CC(C)C)NC(=O)[C@H](CCCNC(=N)N)NC(=O)[C@H](CCC(N)=O)NC(=O)[C@@H](NC(=O)[C@H](C)NC(=O)[C@@H]1CSSC[C@H](NC(=O)[C@@H](N)CCCCNC(=O)CC[C@H](NC(=O)CCCCCCCCCCCCCCCCC(=O)O)C(=O)O)C(=O)N[C@@H](CC(N)=O)C(=O)N[C@@H]([C@@H](C)O)C(=O)N[C@@H](C)C(=O)N[C@@H]([C@@H](C)O)C(=O)N1)[C@@H](C)O)C(=O)N[C@@H](CC(C)C)C(=O)N1CCC[C@H]1C(=O)N1CCC[C@H]1C(=O)N[C@H](C(=O)N[C@@H](CC(N)=O)C(=O)N[C@H](C(=O)NCC(=O)N[C@@H](CO)C(=O)N[C@@H](CC(N)=O)C(=O)N[C@H](C(=O)N[C@@H](Cc1ccc(O)cc1)C(N)=O)[C@@H](C)O)C(C)C)[C@@H](C)O
As for B2, in test [1], the “EC50 (cAMP production)” value was found to be 138 pM and the “Ratio (EC50 hCTR / EC50 hAMYR3)” value was found to be 5.3. For the same molecule, in test [2], the “EC50 (cAMP production)” value came to 725 pM.

B3: Peptide 139 (SEQ ID NO: 139) (peptide)
peptide: K([γGlu-C18 diacid])KCNTATCATQRLANFL[Aib]HSSPNFGPILPPTNVGSETY-NH2
modifications: disulfide 3-8; N-terminus assumed
SMILES: CC[C@H](C)[C@H](NC(=O)[C@@H]1CCCN1C(=O)CNC(=O)[C@H](Cc1ccccc1)NC(=O)[C@H](CC(N)=O)NC(=O)[C@@H]1CCCN1C(=O)[C@H](CO)NC(=O)[C@H](CO)NC(=O)[C@H](Cc1c[nH]cn1)NC(=O)C(C)(C)NC(=O)[C@H](CC(C)C)NC(=O)[C@H](Cc1ccccc1)NC(=O)[C@H](CC(N)=O)NC(=O)[C@H](C)NC(=O)[C@H](CC(C)C)NC(=O)[C@H](CCCNC(=N)N)NC(=O)[C@H](CCC(N)=O)NC(=O)[C@@H](NC(=O)[C@H](C)NC(=O)[C@@H]1CSSC[C@H](NC(=O)[C@H](CCCCN)NC(=O)[C@@H](N)CCCCNC(=O)CC[C@H](NC(=O)CCCCCCCCCCCCCCCCC(=O)O)C(=O)O)C(=O)N[C@@H](CC(N)=O)C(=O)N[C@@H]([C@@H](C)O)C(=O)N[C@@H](C)C(=O)N[C@@H]([C@@H](C)O)C(=O)N1)[C@@H](C)O)C(=O)N[C@@H](CC(C)C)C(=O)N1CCC[C@H]1C(=O)N1CCC[C@H]1C(=O)N[C@H](C(=O)N[C@@H](CC(N)=O)C(=O)N[C@H](C(=O)NCC(=O)N[C@@H](CO)C(=O)N[C@@H](CCC(=O)O)C(=O)N[C@H](C(=O)N[C@@H](Cc1ccc(O)cc1)C(N)=O)[C@@H](C)O)C(C)C)[C@@H](C)O
As for B3, in test [1], the “EC50 (cAMP production)” value was found to be 285 pM and the “Ratio (EC50 hCTR / EC50 hAMYR3)” value worked out at 3.7. In addition, the “EC50 (cAMP production)” value in test [2] was 1040 pM.

B4: Peptide 143 (SEQ ID NO: 143) (peptide)
peptide: K([γGlu-C18 diacid])GGKCNTATCATQRLANFL[Aib]HSSNNFGPILPPTNVGSNTY-NH2
modifications: disulfide 5-10; N-terminus assumed
SMILES: CC[C@H](C)[C@H](NC(=O)[C@@H]1CCCN1C(=O)CNC(=O)[C@H](Cc1ccccc1)NC(=O)[C@H](CC(N)=O)NC(=O)[C@H](CC(N)=O)NC(=O)[C@H](CO)NC(=O)[C@H](CO)NC(=O)[C@H](Cc1c[nH]cn1)NC(=O)C(C)(C)NC(=O)[C@H](CC(C)C)NC(=O)[C@H](Cc1ccccc1)NC(=O)[C@H](CC(N)=O)NC(=O)[C@H](C)NC(=O)[C@H](CC(C)C)NC(=O)[C@H](CCCNC(=N)N)NC(=O)[C@H](CCC(N)=O)NC(=O)[C@@H](NC(=O)[C@H](C)NC(=O)[C@@H]1CSSC[C@H](NC(=O)[C@H](CCCCN)NC(=O)CNC(=O)CNC(=O)[C@@H](N)CCCCNC(=O)CC[C@H](NC(=O)CCCCCCCCCCCCCCCCC(=O)O)C(=O)O)C(=O)N[C@@H](CC(N)=O)C(=O)N[C@@H]([C@@H](C)O)C(=O)N[C@@H](C)C(=O)N[C@@H]([C@@H](C)O)C(=O)N1)[C@@H](C)O)C(=O)N[C@@H](CC(C)C)C(=O)N1CCC[C@H]1C(=O)N1CCC[C@H]1C(=O)N[C@H](C(=O)N[C@@H](CC(N)=O)C(=O)N[C@H](C(=O)NCC(=O)N[C@@H](CO)C(=O)N[C@@H](CC(N)=O)C(=O)N[C@H](C(=O)N[C@@H](Cc1ccc(O)cc1)C(N)=O)[C@@H](C)O)C(C)C)[C@@H](C)O
For the molecule B4, in test [1], the “EC50 (cAMP production)” value worked out at 592 pM and the “Ratio (EC50 hCTR / EC50 hAMYR3)” value was found to be 11.7. The “EC50 (cAMP production)” value in test [2] was found to be 6940 pM.

B5: Peptide 142 (SEQ ID NO: 142) (peptide)
peptide: K([γGlu-C18 diacid])KCNTATCATQRLANFL[Aib]HSSNNFGPILPPTNVGSETY-NH2
modifications: disulfide 3-8; N-terminus assumed
SMILES: CC[C@H](C)[C@H](NC(=O)[C@@H]1CCCN1C(=O)CNC(=O)[C@H](Cc1ccccc1)NC(=O)[C@H](CC(N)=O)NC(=O)[C@H](CC(N)=O)NC(=O)[C@H](CO)NC(=O)[C@H](CO)NC(=O)[C@H](Cc1c[nH]cn1)NC(=O)C(C)(C)NC(=O)[C@H](CC(C)C)NC(=O)[C@H](Cc1ccccc1)NC(=O)[C@H](CC(N)=O)NC(=O)[C@H](C)NC(=O)[C@H](CC(C)C)NC(=O)[C@H](CCCNC(=N)N)NC(=O)[C@H](CCC(N)=O)NC(=O)[C@@H](NC(=O)[C@H](C)NC(=O)[C@@H]1CSSC[C@H](NC(=O)[C@H](CCCCN)NC(=O)[C@@H](N)CCCCNC(=O)CC[C@H](NC(=O)CCCCCCCCCCCCCCCCC(=O)O)C(=O)O)C(=O)N[C@@H](CC(N)=O)C(=O)N[C@@H]([C@@H](C)O)C(=O)N[C@@H](C)C(=O)N[C@@H]([C@@H](C)O)C(=O)N1)[C@@H](C)O)C(=O)N[C@@H](CC(C)C)C(=O)N1CCC[C@H]1C(=O)N1CCC[C@H]1C(=O)N[C@H](C(=O)N[C@@H](CC(N)=O)C(=O)N[C@H](C(=O)NCC(=O)N[C@@H](CO)C(=O)N[C@@H](CCC(=O)O)C(=O)N[C@H](C(=O)N[C@@H](Cc1ccc(O)cc1)C(N)=O)[C@@H](C)O)C(C)C)[C@@H](C)O
B5: the “EC50 (cAMP production)” value in test [1] turned out to be 730 pM; in test [2] it was 2270 pM. Further, the “Ratio (EC50 hCTR / EC50 hAMYR3)” value in test [1] is 3.1.

B6: Peptide 141 (SEQ ID NO: 141) (peptide)
peptide: K([γGlu-C18 diacid])KCNTATCATQRLANFL[Aib]HSSNNFGPILPPTNVGSRTY-NH2
modifications: disulfide 3-8; N-terminus assumed
SMILES: CC[C@H](C)[C@H](NC(=O)[C@@H]1CCCN1C(=O)CNC(=O)[C@H](Cc1ccccc1)NC(=O)[C@H](CC(N)=O)NC(=O)[C@H](CC(N)=O)NC(=O)[C@H](CO)NC(=O)[C@H](CO)NC(=O)[C@H](Cc1c[nH]cn1)NC(=O)C(C)(C)NC(=O)[C@H](CC(C)C)NC(=O)[C@H](Cc1ccccc1)NC(=O)[C@H](CC(N)=O)NC(=O)[C@H](C)NC(=O)[C@H](CC(C)C)NC(=O)[C@H](CCCNC(=N)N)NC(=O)[C@H](CCC(N)=O)NC(=O)[C@@H](NC(=O)[C@H](C)NC(=O)[C@@H]1CSSC[C@H](NC(=O)[C@H](CCCCN)NC(=O)[C@@H](N)CCCCNC(=O)CC[C@H](NC(=O)CCCCCCCCCCCCCCCCC(=O)O)C(=O)O)C(=O)N[C@@H](CC(N)=O)C(=O)N[C@@H]([C@@H](C)O)C(=O)N[C@@H](C)C(=O)N[C@@H]([C@@H](C)O)C(=O)N1)[C@@H](C)O)C(=O)N[C@@H](CC(C)C)C(=O)N1CCC[C@H]1C(=O)N1CCC[C@H]1C(=O)N[C@H](C(=O)N[C@@H](CC(N)=O)C(=O)N[C@H](C(=O)NCC(=O)N[C@@H](CO)C(=O)N[C@@H](CCCNC(=N)N)C(=O)N[C@H](C(=O)N[C@@H](Cc1ccc(O)cc1)C(N)=O)[C@@H](C)O)C(C)C)[C@@H](C)O
In the case of B6, the “EC50 (cAMP production)” value in test [1] is 414 pM; in test [2], 3950 pM. The “Ratio (EC50 hCTR / EC50 hAMYR3)” value in test [1] was found to be 9.5.
